Experimental findings from publication PMC10281268 are described below.

This test has as its target GFP-tagged Y822F vinculin (chicken), expressed in 4T1 vinculin-knockout cells (chicken) (UniProt P12003). In words: co-IP; GFP or GFP-tagged vinculins immunoprecipitated with GFP antibody and protein A/G agarose from lysates of 4T1 vinculin-knockout cells (EB or RIPA buffer), reducing SDS-PAGE, immunoblot for talin, paxillin or β-actin; in one panel cells pre-treated with 10 mM NAC for 1 h (paxillin with Y822C reduced, not significantly changed with wild type and Y822F).
UniProt P12003, sequence (P12003 whole entry Y822F): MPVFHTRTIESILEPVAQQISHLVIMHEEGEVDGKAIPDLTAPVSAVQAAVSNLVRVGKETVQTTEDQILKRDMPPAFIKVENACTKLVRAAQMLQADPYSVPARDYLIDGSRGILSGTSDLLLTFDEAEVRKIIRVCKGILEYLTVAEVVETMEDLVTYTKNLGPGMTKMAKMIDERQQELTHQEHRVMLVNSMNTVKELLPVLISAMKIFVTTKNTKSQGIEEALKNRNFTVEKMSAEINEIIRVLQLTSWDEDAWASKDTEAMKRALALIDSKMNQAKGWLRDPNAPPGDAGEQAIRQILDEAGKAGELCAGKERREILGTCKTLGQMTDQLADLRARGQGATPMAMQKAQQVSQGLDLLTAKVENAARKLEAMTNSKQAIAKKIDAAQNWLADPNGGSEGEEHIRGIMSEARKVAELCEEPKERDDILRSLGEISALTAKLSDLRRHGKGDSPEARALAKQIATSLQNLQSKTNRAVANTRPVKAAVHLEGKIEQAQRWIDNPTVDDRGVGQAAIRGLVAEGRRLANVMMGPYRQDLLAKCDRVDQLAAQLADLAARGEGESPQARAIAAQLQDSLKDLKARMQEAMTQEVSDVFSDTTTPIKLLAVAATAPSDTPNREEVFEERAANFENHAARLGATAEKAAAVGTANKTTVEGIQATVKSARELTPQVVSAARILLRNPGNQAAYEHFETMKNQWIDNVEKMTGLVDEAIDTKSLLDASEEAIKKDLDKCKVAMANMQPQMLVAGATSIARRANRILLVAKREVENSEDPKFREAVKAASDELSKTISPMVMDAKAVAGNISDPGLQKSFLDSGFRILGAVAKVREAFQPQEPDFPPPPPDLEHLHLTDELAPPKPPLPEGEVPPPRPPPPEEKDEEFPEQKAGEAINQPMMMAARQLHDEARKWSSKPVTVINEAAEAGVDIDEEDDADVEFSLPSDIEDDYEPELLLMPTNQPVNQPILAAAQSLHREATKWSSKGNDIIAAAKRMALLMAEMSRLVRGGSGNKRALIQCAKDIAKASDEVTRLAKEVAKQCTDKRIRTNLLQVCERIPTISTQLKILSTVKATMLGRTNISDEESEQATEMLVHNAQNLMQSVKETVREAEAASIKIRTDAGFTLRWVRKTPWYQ

Take “talin (endogenous in 4T1 cells; the paper's 'talin' refers collectively to talin 1 and 2) (from UniProt P26039 1-2541) (natural protein)”: the fold less talin recovered than with T12 vinculin turned out to be 390 fold.
